According to patent publication US20250163127A1 (published 2025):
One block for each binder: values may come before it.

Assays:
CD28 = CD28 (human, UniProt P10747); assay: cell-based or functional assay
PD-1 = PD-1 (human, UniProt Q15116); assay: cell-based or functional assay
CD2 = CD2 (Homo sapiens (Human), UniProt P06729); assay: flow cytometry, CHO-CD2 cells
human PD-1 = human PD-1 (human, UniProt Q15116); assay: flow cytometry, Jurkat/IL-2/PD-1 cells

B1: PD-L1 303-ICOSL 2264-ICOSL 2264-PD-L1 303 (other)
chain: FTVTVPKDLYVVEYGSNMTIECKFPVEKQLDLAALIVYWEMEGKDIIQFVHGEEDQKAQHSSYRQRARLLKDQLSLGNAALQITDVKLQDAGVYRCMISYGGGADYKRITVKVNAGGGGSGGGGSGGGGSDTQEKEVRAMVGSDVELSCACPEGSRFDLNDVYVYWQTSESKTVVTYHIPQHSSLEYVDSRYRNRALMSPAGMLRGDFSLRLFNVTPQDEQKFHCLVLSRSLGFQEVLSVEVTLHVAANFSVGGGGSGGGGSGGGGSDTQEKEVRAMVGSDVELSCACPEGSRFDLNDVYVYWQTSESKTVVTYHIPQHSSLEYVDSRYRNRALMSPAGMLRGDFSLRLFNVTPQDEQKFHCLVLSRSLGFQEVLSVEVTLHVAANFSVGSGGSGGGGSGGGGSFTVTVPKDLYVVEYGSNMTIECKFPVEKQLDLAALIVYWEMEGKDIIQFVHGEEDQKAQHSSYRQRARLLKDQLSLGNAALQITDVKLQDAGVYRCMISYGGGADYKRITVKVNADYKDDDDKHHHHHH
% CD25 Hi FoxP3 + (CD28): 0.89 % at 100 nM | % CD25 Hi FoxP3 + (PD-1): 0.89 % at 100 nM

B4: PD-L1 303-ICOSL 2264-PD-L1 303 (other)
chain: FTVTVPKDLYVVEYGSNMTIECKFPVEKQLDLAALIVYWEMEGKDIIQFVHGEEDQKAQHSSYRQRARLLKDQLSLGNAALQITDVKLQDAGVYRCMISYGGGADYKRITVKVNAGGGGSGGGGSGGGGSDTQEKEVRAMVGSDVELSCACPEGSRFDLNDVYVYWQTSESKTVVTYHIPQHSSLEYVDSRYRNRALMSPAGMLRGDFSLRLFNVTPQDEQKFHCLVLSRSLGFQEVLSVEVTLHVAANFSVGGGGSGGGGSGGGGSFTVTVPKDLYVVEYGSNMTIECKFPVEKQLDLAALIVYWEMEGKDIIQFVHGEEDQKAQHSSYRQRARLLKDQLSLGNAALQITDVKLQDAGVYRCMISYGGGADYKRITVKVNADYKDDDDKHHHHHH
% CD25 Hi FoxP3 + (CD28): 23.2 % at 100 nM | % CD25 Hi FoxP3 + (PD-1): 23.2 % at 100 nM

The next lines start with the values.

% CD25 Hi FoxP3 + (CD28): 4.28 % at 100 nM | % CD25 Hi FoxP3 + (PD-1): 4.28 % at 100 nM
B2: PD-L1 303-PD-L1 303-ICOSL 2264-ICOSL 2264 (other)
chain: FTVTVPKDLYVVEYGSNMTIECKFPVEKQLDLAALIVYWEMEGKDIIQFVHGEEDQKAQHSSYRQRARLLKDQLSLGNAALQITDVKLQDAGVYRCMISYGGGADYKRITVKVNAGGGGSGGGGSGGGGSFTVTVPKDLYVVEYGSNMTIECKFPVEKQLDLAALIVYWEMEGKDIIQFVHGEEDQKAQHSSYRQRARLLKDQLSLGNAALQITDVKLQDAGVYRCMISYGGGADYKRITVKVNAGGGGSGGGGSGGGGSDTQEKEVRAMVGSDVELSCACPEGSRFDLNDVYVYWQTSESKTVVTYHIPQHSSLEYVDSRYRNRALMSPAGMLRGDFSLRLFNVTPQDEQKFHCLVLSRSLGFQEVLSVEVTLHVAANFSVGSGGSGGGGSGGGGSDTQEKEVRAMVGSDVELSCACPEGSRFDLNDVYVYWQTSESKTVVTYHIPQHSSLEYVDSRYRNRALMSPAGMLRGDFSLRLFNVTPQDEQKFHCLVLSRSLGFQEVLSVEVTLHVAANFSVDYKDDDDKHHHHHH

EC50 (CD2): 14.4 nM | EC50 (human PD-1): 6.6 nM
B3: CD58 3650-PD-L1 303-PD-L1 303-CD58 3650 (other)
chain: SQQIYGVVYGNVTFHVPSNVPLKEVLWKKQKDKVAELENSEFRAFSSFKNRVYLDTVSGSLTIYNLTSSDEDEYEMESPNITDTMKFFLYVLESGGGGSGGGGSGGGGSFTVTVPKDLYVVEYGSNMTIECKFPVEKQLDLAALIVYWEMEGKDIIQFVHGEEDQKAQHSSYRQRARLLKDQLSLGNAALQITDVKLQDAGVYRCMISYGGGADYKRITVKVNAGGGGSGGGGSGGGGSFTVTVPKDLYVVEYGSNMTIECKFPVEKQLDLAALIVYWEMEGKDIIQFVHGEEDQKAQHSSYRQRARLLKDQLSLGNAALQITDVKLQDAGVYRCMISYGGGADYKRITVKVNAGSGGSGGGGSGGGGSSQQIYGVVYGNVTFHVPSNVPLKEVLWKKQKDKVAELENSEFRAFSSFKNRVYLDTVSGSLTIYNLTSSDEDEYEMESPNITDTMKFFLYVLESGSGGGGSDYKDDDDKHHHHHH
